Assay results: patent publication US20060269977A1, “Recombinant antibody recognizing dioxin and gene encoding the antibody” (priority 2003, published 2006)

Assays:
Format in all cases: binding
[1] = Indirect competitive immunoassay using anti-2,3,4,7,8-PeCDF scFv; conditions: 2,3,4,7,8-PeCDF solution in 20% DMSO; immobilized 2,3,4,7,8-PeCDF derivative-BSA conjugate; FIG. 9
Description: Determination of 2,3,4,7,8-PeCDF by an Indirect Competitive Immunoassay Using Anti-2,3,4,7,8-PeCDF scFv
One μg/ml of 2,3,4,7,8-PeCDF derivative-BSA conjugate (50 μl) was added to a microtiter plate, and allowed to react at room temperature for one hour. The wells of the microtiter plate were washed with PBS(−) containing 0.05% Tween 20. A solution of Block Ace (Yukijirushi Co.) was then added to the wells, and the wells were blocked by allowing them to stand at room temperature for two hours. After the microtiter plate was washed, a solution (25 μl) of 2,3,4,7,8-PeCDF prepared in various concentrations (a solution in 20% DMSO) and a solution (25 μl) of anti-2,3,4,7,8-PeCDF scFv were added to the wells, and allowed to react at room temperature for 0.5 to 1 hour. After the microtiter plate was again washed, a solution of anti-tetra-His antibody (Qiagen Co.) 2000-fold diluted was added to the wells, and allowed to react at room temperature for one hour. Subsequently, a solution (50 μl) of peroxidase-labeled anti-mouse IgG (recognizing γ-chain) antibody (KPL Co.) 3000-fold diluted was added to the wells, and allowed to react at room temperature for one hour. […] The reaction was terminated by adding 1 M H3PO4 (50 μl), and OD450 (control: OD600) was measured using a plate reader (Labsystems Co.).

[2] = EIA reactivity of H-chain variable region polypeptide fractions to immobilized 2,3,4,7,8-PeCDF-BSA conjugate; conditions: fractions eluted from nickel-chelate column; EIA on immobilized 2,3,4,7,8-PeCDF-BSA conjugate; FIG. 10
Description: Escherichia coli Origami B (DE3) (Novagen Co.) was transformed using expression vector pET22Δ-Dx3860H which was prepared by removing the sequence between restriction enzyme sites Bam HI and Not I containing the L-chain variable region of expression vector pET22Δ-Dx3860HL. Using the transformant, the expression of the H-chain variable region polypeptide (polypeptide having the amino acid sequence as shown in SEQ ID No. 5) was carried out in the same manner as in the case of the scFv.
The H-chain variable region polypeptide obtained as an inclusion body was reconstituted on a nickel-chelate column as described above, and the product was then isolated and purified using imidazole. Protein concentrations of the fractions eluted from the chelate column were determined by measuring absorbance (280 nm), and the reactivity to an immobilized 2,3,4,7,8-PeCDF-BSA conjugate was also investigated by an EIA method. As a result, it was recognized that the fractions of the H-chain variable region polypeptide have an anti-2,3,4,7,8-PeCDF activity as shown in FIG. 10.

[3] = Hybridoma supernatant EIA: antibody titer to immobilized 2,3,4,7,8-PeCDF derivative-BSA conjugate and its inhibition by 2,3,4,7,8-PeCDF; conditions: titer inhibited by 2,3,4,7,8-PeCDF dissolved in 20% DMSO
Description: After 7 to 10 days from the onset of the cultivation, a portion of the supernatant of the culture in the wells in which proliferation of hybridomas was observed was taken and added to a microtiter plate to which the 2,3,4,7,8-PeCDF derivative-BSA conjugate was immobilized. After allowing to react at room temperature for one hour, the plate was washed with PBS(−) containing 0.05% Tween 20. A peroxidase-labeled anti-mouse IgG antibody (recognizing γ-chain) (KPL Co.) was then added to the plate and allowed to react at room temperature for one hour, and the plate was then washed in the same manner. A substrate solution (TMB substrate, KPL Co.) was added to the plate, the peroxidase activity on the plate was measured, and the antibody titer in the supernatant of the culture was determined.

Molecule | recognition of 2,3,4,7,8-PeCDF by monoclonal antibody [3] | further results
anti-2,3,4,7,8-PeCDF scFv: scFv: H-chain variable region of Dx3860, linker, L-chain variable region of Dx3860 (SEQ ID No. 56), expressed in E. coli Origami B (DE3) (protein, scFv fragment Dx3860HL) scFv: EVKLVESGGGLVKPGGSLKLSCAASGFTFSSYAMSWVRQTPEKRLEWVASFSNGGITYYPDSVKGRFTISRDNARNILYLQMTSLRSEDTAIYYCARGYGPAYWGQGTLVTVSSGGGGSGGGGSGGGGSQAVVTQESALTTSPGETVTLTCRSSTGAVTTLNYANWVQEKPDHLFTGLIGNTNNRAPGVPARFSGSLIGDKAALTITGAQTEDEAIYFCALWYSNHLVFGGGTKLTVLG | – | determination of 2,3,4,7,8-PeCDF by indirect competitive immunoassay [1]: can be determined in a highly sensitive manner
H-chain variable region polypeptide: H-chain variable region of Dx3860, polypeptide having the amino acid sequence of SEQ ID No. 5, from vector pET22Δ-Dx3860H (antibody, V domains shown, Polypeptide of H-chain variable region of monoclonal antibody Dx 3860) VH: EVKLVESGGGLVKPGGSLKLSCAASGFTFSSYAMSWVRQTPEKRLEWVASFSNGGITYYPDSVKGRFTISRDNARNILYLQMTSLRSEDTAIYYCARGYGPAYWGQGTLVTVSA | – | binding activity to 2,3,4,7,8-PeCDF (anti-2,3,4,7,8-PeCDF activity) [2]: has a binding activity to 2,3,4,7,8-PeCDF
Dx3860: monoclonal antibody recognizing 2,3,4,7,8-PeCDF, produced by hybridoma Dx3860r1; H/L variable regions SEQ ID Nos. 5 and 6 (antibody, V domains shown, Polypeptide of H-chain variable region of monoclonal antibody Dx 3860; Polypeptide of L-chain variable region of monoclonal antibody Dx 3860) VH: EVKLVESGGGLVKPGGSLKLSCAASGFTFSSYAMSWVRQTPEKRLEWVASFSNGGITYYPDSVKGRFTISRDNARNILYLQMTSLRSEDTAIYYCARGYGPAYWGQGTLVTVSA VL: QAVVTQESALTTSPGETVTLTCRSSTGAVTTLNYANWVQEKPDHLFTGLIGNTNNRAPGVPARFSGSLIGDKAALTITGAQTEDEAIYFCALWYSNHLVFGGGTKLTVLG | recognizing 2,3,4,7,8-PeCDF | –
Dx3150: monoclonal antibody recognizing 2,3,4,7,8-PeCDF, produced by hybridoma Dx3150r1; H/L variable regions SEQ ID Nos. 7 and 8 (antibody, V domains shown, Polypeptide of H-chain variable region of monoclonal antibody Dx 3150; Polypeptide of L-chain variable region of monoclonal antibody Dx 3150) VH: DVQLQESGPGLVKPSQSLSLTCSVTGYSITSGFYWNWIRQFPGNKLEWMGYISYDGYNNYNPFLKNRVSITRDTSENQFFLKLHSVTTEDTATYYCVSYGSRRGVTYWGQGTTLTVSS VL: QAVVTQESALTTSPGETVTLTCRSSTGAVTTSNYANWVQEKPDHLFTGLIGNTNNRAPGVPARFSGSLIGDKAALTITGAQTEDEAIYFCALWYNTHLVFGGGTRLTVLG | recognizing 2,3,4,7,8-PeCDF | –
